14 molecules from patent US20100310640A1 can be followed below.

Conditions in all cases: remark: other sources report otherwise
For assay [1], the target named is T1, HLA-DR DRB1*0101 (human).
T1 chain 1: not shown
T1 chain 2: not shown
The experiment in a line: radioligand competition, purified HLA-DR. On the technique in general: Loss of bound radioactivity is the signal in a displacement assay; it reports binding, not function.

Assay [2] concerns the target T2, HLA-DR DRB1*0301 (human).
T2 chain 1: not shown
T2 chain 2: not shown
The assay is described as follows: radioligand inhibition, purified HLA-DR.

Assay [3] has as its target T3, HLA-DR DRB1*0405 (human).
T3 chain 1: not shown
T3 chain 2: not shown
The assay is described as follows: radiolabeled-peptide inhibition, purified HLA-DR.

Assay [4] deals with T4, HLA-DR DRB1*1302 (human).
T4 chain 1: not shown
T4 chain 2: not shown
The experiment in a line: radiolabeled-peptide inhibition, purified HLA-DR.

Assay [5] concerns the target T5, HLA-DR DRB1*0701 (human).
T5 chain 1: not shown
T5 chain 2: not shown
The experiment in a line: radiolabeled-peptide inhibition, purified HLA-DR.

In assay [6] the target is T6, HLA-DR DRB1*0401 (human).
T6 chain 1: not shown
T6 chain 2: not shown
The assay is described as follows: radiolabeled-peptide inhibition, purified HLA-DR.

In assay [7] the target is T7, HLA-DR DRB1*0404 (human).
T7 chain 1: not shown
T7 chain 2: not shown
The experiment in a line: radiolabeled-peptide inhibition, purified HLA-DR.

Assay [8] concerns the target T8, HLA-DR DRB4*0101 (human).
T8 chain 1: not shown
T8 chain 2: not shown
The experiment in a line: radiolabeled-peptide inhibition, purified HLA-DR.

For assay [9], the target named is T3, HLA-DR DRB1*0405 (human). The assay is described as follows: radioligand inhibition, purified HLA-DR.
In assay [10] the target is T4, HLA-DR DRB1*1302 (human). The experiment in a line: radioligand inhibition, purified HLA-DR.
Assay [11] has as its target T1, HLA-DR DRB1*0101 (human). The experiment in a line: radioligand inhibition, purified HLA-DR.
Assay [12] has as its target T5, HLA-DR DRB1*0701 (human). The experiment in a line: radioligand inhibition, purified HLA-DR.
In assay [13] the target is T6, HLA-DR DRB1*0401 (human). The experiment in a line: radioligand inhibition, purified HLA-DR.
The target of assay [14] is T9, HLA-DR DRB1*1101 (human).
T9 chain 1: not shown
T9 chain 2: not shown
The experiment in a line: radioligand inhibition, purified HLA-DR.

The target of assay [15] is T7, HLA-DR DRB1*0404 (human). The experiment in a line: radioligand inhibition, purified HLA-DR.
Assay [16] deals with T10, HLA-DR DRB5*0101 (human).
T10 chain 1: not shown
T10 chain 2: not shown
The assay is described as follows: radioligand inhibition, purified HLA-DR.

The target in assay [17] is T1, HLA-DR DRB1*0101 (human). The experiment in a line: radiolabeled-peptide inhibition, purified HLA-DR.
Assay [18] concerns the target T9, HLA-DR DRB1*1101 (human). The assay is described as follows: radiolabeled-peptide inhibition, purified HLA-DR.
Assay [19] concerns the target T10, HLA-DR DRB5*0101 (human). The experiment in a line: radiolabeled-peptide inhibition, purified HLA-DR.
Assay [20] deals with T2, HLA-DR DRB1*0301 (human). The experiment in a line: radiolabeled-peptide inhibition, purified HLA-DR.
The target of the next assay is T11, HLA-DR DRB1*0802 (human).
T11 chain 1: not shown
T11 chain 2: not shown
The assay is described as follows: radioligand inhibition, purified HLA-DR.

Assay [21] has as its target T8, HLA-DR DRB4*0101 (human). The experiment in a line: radioligand inhibition, purified HLA-DR.

On to VAAVQGLNLRSPNNF [Cyclin D1.209 (peptide 9019.0171)], for which the IC50 with HLA-DR DRB1*0101 (human) [1] was 44 nM.

For ELAVFREKVTEQHRQ [Peptide 9019.0018], the IC50 with HLA-DR DRB1*0301 (human) [2] amounted to 8620 nM.

As to ISAVVGILLVVVLGV [9019.0067], the IC50 in the assay with HLA-DR DRB1*0405 (human) [3] came out at 447 nM; in the assay with HLA-DR DRB1*1302 (human) [4] it was 443 nM; with HLA-DR DRB1*0701 (human) [5], 941 nM; with HLA-DR DRB1*0401 (human) [6] it was 420 nM; with HLA-DR DRB1*0404 (human) [7], 3 µM; with HLA-DR DRB4*0101 (human) [8] it was 3110 nM.

Turning to SITVSASGTSPGLSA [CEA.671 peptide 9919.0143], the IC50 stood at 3570 nM with HLA-DR DRB1*0405 (human) [9]; 592 nM in the assay with HLA-DR DRB1*1302 (human) [10]; 2810 nM with HLA-DR DRB1*0101 (human) [11]; 1560 nM with HLA-DR DRB1*0701 (human) [12]; 75 nM with HLA-DR DRB1*0401 (human) [13]; 3320 nM with HLA-DR DRB1*1101 (human) [14]. The IC50 with HLA-DR DRB1*0404 (human) [15] turned out to be 11 nM; in the assay with HLA-DR DRB5*0101 (human) [16], 15.1 µM.

Take TEILKGGVLIQRNPQ [Her2/neu.146]: the IC50 with HLA-DR DRB1*0405 (human) [9] stood at 760 nM; in the assay with HLA-DR DRB1*1302 (human) [10], 343 nM; with HLA-DR DRB1*0101 (human) [11], 11 nM; with HLA-DR DRB1*0701 (human) [12], 2490 nM; with HLA-DR DRB1*0401 (human) [13] it was 40 nM; with HLA-DR DRB1*1101 (human) [14], 692 nM. Further, the values for the IC50 with HLA-DR DRB1*0404 (human) [15] and in the assay with HLA-DR DRB5*0101 (human) [16] were 32 nM and 1.88 µM, respectively.

Regarding ITGYLYISAWPDSLP [9019.0050], the IC50 is 8.5 nM with HLA-DR DRB1*0405 (human) [3]; 751 nM with HLA-DR DRB1*1302 (human) [4]; 96 nM with HLA-DR DRB1*0101 (human) [17]; 243 nM with HLA-DR DRB1*0401 (human) [6]; 2570 nM in the assay with HLA-DR DRB1*1101 (human) [18]; 270 nM with HLA-DR DRB4*0101 (human) [8]. This molecule also gave an IC50 with HLA-DR DRB5*0101 (human) [19] of 67 nM.

LQRYSEDPTVPLPSE [Peptide 9019.0099]: the IC50 in the assay with HLA-DR DRB1*0301 (human) [2] was found to be 18 nM; in the assay with HLA-DR DRB1*1302 (human) [10] it was 280 nM; with HLA-DR DRB1*1101 (human) [14] it was 94 nM; in the assay with HLA-DR DRB1*0404 (human) [15], 13100 nM.

For the molecule LREVRAVTSANIQEF [9019.0046], the IC50 worked out at 17 nM with HLA-DR DRB1*0101 (human) [17] and 94 nM with HLA-DR DRB5*0101 (human) [19].

Regarding LQGLPREYVNARHCL [9019.0064], the IC50 was found to be 9 µM with HLA-DR DRB1*0301 (human) [20]; 670 nM with HLA-DR DRB1*1302 (human) [4]; 354 nM with HLA-DR DRB1*0101 (human) [17]; 1900 nM in the assay with HLA-DR DRB1*0701 (human) [5]; 201 nM with HLA-DR DRB1*0401 (human) [6]; 2550 nM with HLA-DR DRB4*0101 (human) [8].

Take SQFLRGQECVEECRV [9019.0062]: the IC50 with HLA-DR DRB1*0101 (human) [17] was 462 nM; in the assay with HLA-DR DRB1*0701 (human) [5], 540 nM; with HLA-DR DRB1*0401 (human) [6], 1020 nM; with HLA-DR DRB1*0404 (human) [7], 4.55 µM; with HLA-DR DRB5*0101 (human) [19], 7040 nM.

Regarding HRDLAARNVLVKSPN [9019.0085], the IC50 was 11200 nM in the assay with HLA-DR DRB1*0405 (human) [3], 116 nM with HLA-DR DRB1*1302 (human) [4], 158 nM in the assay with HLA-DR DRB1*0101 (human) [17] and 401 nM with HLA-DR DRB1*0401 (human) [6].

PPSMVAAGSVVAAVQ [Cyclin D1.109]: the IC50 in the assay with HLA-DR DRB1*1302 (human) [10] amounted to 55 nM; with HLA-DR DRB1*0101 (human) [11], 6.8 nM; in the assay with HLA-DR DRB1*0802 (human) it was 1400 nM; with HLA-DR DRB4*0101 (human) [21] it was 91 nM.

KLCIYTDNSIRPEEL [Cyclin D1.123]: the IC50 in the assay with HLA-DR DRB1*0301 (human) [2] was determined as 64 nM; with HLA-DR DRB1*1302 (human) [10], 879 nM; with HLA-DR DRB1*0101 (human) [11] it was 1920 nM; with HLA-DR DRB1*0701 (human) [12] it was 1100 nM; with HLA-DR DRB1*0401 (human) [13], 90 nM; with HLA-DR DRB4*0101 (human) [21], 33 nM. This molecule registered an IC50 in the assay with HLA-DR DRB5*0101 (human) [16] of 4.62 µM.

As for AYVMAGVGSPYVSRL [9019.0077], the IC50 in the assay with HLA-DR DRB1*0405 (human) [3] was 596 nM; in the assay with HLA-DR DRB1*1302 (human) [4], 402 nM; in the assay with HLA-DR DRB1*0101 (human) [17], 92 nM; with HLA-DR DRB4*0101 (human) [8], 5060 nM; with HLA-DR DRB5*0101 (human) [19], 308 nM.

In general, IC50 refers to the concentration that gives 50% inhibition.
